Measurements taken from patent US20160002343A1 (AbbVie / Abbott, published 2016).

Assays:
[1] = target: mouse Transferrin Receptor overexpressed on Hek 293 cells (mouse) (UniProt Q62351); experiment: binding signal on TfR against 'Ab, ng/ml'; format not stated for this figure, Examples 4 and 9 describe the cell-based Hek293/mTfR MSD-ECL binding assay
[2] = target: mouse Transferrin Receptor overexpressed on Hek 293 cells (mouse) (UniProt Q62351); experiment: cell-based MSD-ECL binding, Hek293/mTfR cells
[3] = target: mouse Transferrin Receptor overexpressed on Hek 293 cells (mouse) (UniProt Q62351); experiment: TfR binding EC50, cell-based assay (repeats Table 7)
[4] = target: rmTfR (119-763) (mouse) (UniProt Q62351); experiment: Biacore SPR, antibody captured by anti-human IgG Fc, rmTfR (119-763) in solution
rmTfR (119-763) (mouse), sequence (Q62351 119-763): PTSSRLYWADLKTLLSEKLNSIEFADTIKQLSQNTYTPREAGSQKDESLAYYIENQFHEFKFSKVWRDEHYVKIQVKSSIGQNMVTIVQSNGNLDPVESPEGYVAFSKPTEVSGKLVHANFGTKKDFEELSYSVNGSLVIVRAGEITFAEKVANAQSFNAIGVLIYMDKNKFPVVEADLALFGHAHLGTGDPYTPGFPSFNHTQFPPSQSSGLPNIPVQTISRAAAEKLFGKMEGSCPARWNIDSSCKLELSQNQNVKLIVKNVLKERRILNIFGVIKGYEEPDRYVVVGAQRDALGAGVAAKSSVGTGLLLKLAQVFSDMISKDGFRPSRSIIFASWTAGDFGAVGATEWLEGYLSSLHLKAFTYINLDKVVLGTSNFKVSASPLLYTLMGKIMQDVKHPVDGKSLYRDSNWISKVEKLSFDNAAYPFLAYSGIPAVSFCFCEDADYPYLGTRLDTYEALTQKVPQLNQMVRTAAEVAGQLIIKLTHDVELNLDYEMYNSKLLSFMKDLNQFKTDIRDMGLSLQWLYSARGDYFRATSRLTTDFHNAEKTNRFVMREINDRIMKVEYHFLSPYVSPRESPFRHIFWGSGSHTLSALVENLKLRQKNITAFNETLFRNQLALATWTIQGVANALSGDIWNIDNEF

[5] = target: mouse Transferrin Receptor overexpressed on Hek 293 cells (mouse) (UniProt Q62351); experiment: mTfR binding cell-based assay
[6] = target: T1, rmTfR (123-763) (mouse, UniProt Q62351 123-763); experiment: Biacore SPR, antibody captured by anti-human IgG Fc, rmTfR (123-763) in solution
T1 construct: range 123-763; also called recombinant mouse transferrin receptor 123-763
T1 sequence (Q62351 123-763): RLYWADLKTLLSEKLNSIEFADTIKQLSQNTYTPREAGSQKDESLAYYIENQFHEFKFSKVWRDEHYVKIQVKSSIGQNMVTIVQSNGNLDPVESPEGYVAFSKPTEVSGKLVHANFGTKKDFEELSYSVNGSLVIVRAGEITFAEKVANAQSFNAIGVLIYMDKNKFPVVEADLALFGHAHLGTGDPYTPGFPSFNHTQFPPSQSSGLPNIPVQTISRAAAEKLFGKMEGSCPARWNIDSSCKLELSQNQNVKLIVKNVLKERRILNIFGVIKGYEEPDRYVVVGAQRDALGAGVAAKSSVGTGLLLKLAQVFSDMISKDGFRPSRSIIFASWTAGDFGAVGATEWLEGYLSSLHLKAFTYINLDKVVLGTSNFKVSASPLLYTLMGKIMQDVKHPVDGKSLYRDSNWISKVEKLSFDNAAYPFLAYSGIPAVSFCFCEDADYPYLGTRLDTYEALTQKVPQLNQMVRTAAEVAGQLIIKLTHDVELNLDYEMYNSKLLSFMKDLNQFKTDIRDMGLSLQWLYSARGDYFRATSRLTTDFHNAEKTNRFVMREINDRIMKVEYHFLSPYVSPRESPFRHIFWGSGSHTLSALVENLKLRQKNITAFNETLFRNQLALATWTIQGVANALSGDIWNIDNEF
Protocol: (§1) The BIACORE assay (Biacore, Inc, Piscataway, N.J.) was used to determine the affinity of antibodies or DVD-Ig proteins with kinetic measurements of on-rate and off-rate constants. Binding of antibodies or DVD-Ig protein to a target antigen (for example, a purified recombinant target antigen) was determined by surface plasmon resonance-based measurements with a Biacore® 1000 or 3000 instrument (Biacore® AB, Uppsala, Sweden) using running HBS-EP (10 mM HEPES [pH 7.4], 150 mM NaCl, 3 mM EDTA, and 0.005% surfactant P20) at 25° C. All chemicals were obtained from Biacore® AB (Uppsala, Sweden) or otherwise from a different source as described in the text. For example, approximately 5000 RU of goat anti-human IgG, (Fcγ), fragment specific polyclonal antibody (Pierce Biotechnology Inc, Rockford, Ill.) diluted in 10 mM sodium acetate (pH 4.5) was directly immobilized across a CM5 research grade biosensor chip using a standard amine coupling kit according to manufacturer's instructions and procedures at 25 μg/ml. Unreacted moieties on the biosensor surface were blocked with ethanolamine. Modified carboxymethyl dextran surface in flowcell 2 and 4 was used as a reaction surface. Unmodified carboxymethyl dextran without goat anti-human IgG in flow cell 1 and 3 was used as the reference surface. For kinetic analysis, rate equations derived from the 1:1 Langmuir binding model were fitted simultaneously to association and dissociation phases of all eight injections (using global fit analysis) with the use of BIAevaluation 4.0.1 software. Purified antibodies or DVD-Ig proteins were diluted in HEPES-buffered saline for capture across goat anti-human IgG specific reaction surfaces. Antibodies or DVD-Ig proteins to be captured as ligands (25 μg/ml) were injected over reaction matrices at a flow rate of 5 μl/minute. The association and dissociation rate constants, kon (M⁻¹ s⁻¹) and koff (s⁻¹) were determined under a continuous flow rate of 25 μl/minute. Rate constants were derived by making kinetic binding measurements at different antigen concentrations ranging from 10-200 nM. The equilibrium dissociation constant (M) of the reaction between antibodies or DVD-Ig proteins and the target antigen was then calculated from the kinetic rate constants by the following formula: KD=koff/kon. Binding was recorded as a function of time and kinetic rate constants were calculated.

[7] = target: T2, TNF (mouse, UniProt P06804 80-235); experiment: cell-based or functional assay
T2 sequence (looked up): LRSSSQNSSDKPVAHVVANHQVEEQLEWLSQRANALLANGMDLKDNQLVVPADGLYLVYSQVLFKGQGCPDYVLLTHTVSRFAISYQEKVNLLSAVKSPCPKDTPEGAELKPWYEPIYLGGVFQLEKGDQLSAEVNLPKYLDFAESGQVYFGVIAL

[8] = target: T3, mouse Transferrin Receptor overexpressed on Hek 293 cells (mouse, UniProt Q62351 1-763); experiment: 293/mTfR cell-based assay
T3 construct: whole, on cells; also called mTfR; Hek293/mTfR
T3 sequence (Q62351 whole entry): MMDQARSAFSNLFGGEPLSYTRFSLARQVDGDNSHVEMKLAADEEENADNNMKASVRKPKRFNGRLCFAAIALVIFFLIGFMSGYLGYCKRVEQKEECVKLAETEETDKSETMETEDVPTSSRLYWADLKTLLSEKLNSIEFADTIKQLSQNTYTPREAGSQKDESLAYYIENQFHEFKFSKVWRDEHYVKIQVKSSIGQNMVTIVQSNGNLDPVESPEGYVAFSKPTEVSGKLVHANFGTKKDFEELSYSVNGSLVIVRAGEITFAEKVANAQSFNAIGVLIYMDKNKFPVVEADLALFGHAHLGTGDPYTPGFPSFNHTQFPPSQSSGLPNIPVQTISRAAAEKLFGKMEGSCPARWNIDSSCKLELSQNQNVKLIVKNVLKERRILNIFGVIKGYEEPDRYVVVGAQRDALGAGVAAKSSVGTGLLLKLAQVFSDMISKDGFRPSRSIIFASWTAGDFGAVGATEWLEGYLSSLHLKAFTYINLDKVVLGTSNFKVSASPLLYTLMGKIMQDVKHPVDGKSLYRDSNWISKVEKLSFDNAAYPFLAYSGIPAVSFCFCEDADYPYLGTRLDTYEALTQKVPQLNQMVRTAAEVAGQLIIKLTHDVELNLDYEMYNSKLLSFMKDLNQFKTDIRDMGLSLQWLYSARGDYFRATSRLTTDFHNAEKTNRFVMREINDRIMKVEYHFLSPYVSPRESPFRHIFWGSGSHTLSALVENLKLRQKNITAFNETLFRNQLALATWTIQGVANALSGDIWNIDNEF
Protocol: (§2) Meso-scale Discovery (MSD) Electrochemiluminescence (ECL) assays to screen for antibodies or DVD-Ig proteins that bind a desired target antigen expressed on the cell surface were performed as follows: Hek 293 cells overexpressing mouse Transferrin Receptor were added onto MSD 96-well plates (MSD Cat# L11 XB-3, lot#2290-EA). The plates which were blocked using blocking buffer (30% FBS Serum (Hyclone) in PBS) at 37° C. for 1 hour. After incubating at room temperature (RT) for 30 minutes with mild agitation, plates were washed with DPBS 3 times and Abs/DVD-Ig proteins (10,000 ng/ml) were added. After incubating for 1 hour at RT, plates were washed 3 times with DPBS and 25 μl of Goat anti-human Sulfo TAG (MSD Cat# R32AC-, Lot# W001162) at 1 μg/ml was added. Following incubation at RT for 1 hour, plates were washed and MSD read buffer was added before reading on a MSD SECTOR Imager 6000. EC50 values were obtained using Xlfit4 software package.

[9] = target: T3, mouse Transferrin Receptor …; experiment: mTfR binding cell-based assay
Protocol: as §2

[10] = target: T3, mouse Transferrin Receptor …; experiment: cell-based MSD-ECL binding, Hek293/mTfR cells
Protocol: as §2

[11] = target: T3, mouse Transferrin Receptor …; experiment: EC50 column of Table 13, taken as the cell-based mTfR binding assay
Protocol: as §2

[12] = target: T1, rmTfR (123-763); experiment: Biacore SPR, DVD-Ig captured by anti-human IgG Fc, rmTfR (123-763) in solution
Protocol: as §1, with “Purified antibodies or DVD-Ig proteins were diluted in HEPES-buffered saline for capture across goat anti-human IgG specific reaction surfaces. Antibodies or DVD-Ig proteins to be captured as ligands (25 μg/ml) were injected over reaction matrices at a flow rate of 5 μl/minute.” left out, “Rate constants were derived by making kinetic binding measurements at different antigen concentrations ranging from 10-200 nM.” left out

mouse Transferrin Receptor overexpressed on Hek 293 cells (mouse), sequence (Q62351 whole entry): as above

B1: AB221 (antibody, from another filing, V domains shown)
VH: EVQLVESGGGLVQPGNSLTLSCVASGFTFSNYGMHWIRQAPKKGLEWIAMIYYDSSKMNYADTVKGRFTISRDNSKNTLYLEMNSLRSEDTAMYYCAVPTSHYVVDVWGQGVSVTVSS
VL: DIQMTQSPASLSASLEEIVTITCQASQDIGNWLAWYQQKPGKSPQLLIYGATSLADGVPSRFSGSRSGTQFSLKISRVQVEDIGIYYCLQAYNTPWTFGGGTKLELKR
B1 was tested, and the EC50 (read off the curve) [1] was 30 ng/mL, the EC50 [2] was 0.1 nM and the EC50 [3] was 0.1 nM. For the same binder, the Kd [4] was 5 nM, the koff [4] was 0.000181 s⁻¹ and the kon [4] was 39400 M⁻¹ s⁻¹. For the same binder, the EC50 [5] was 0.12 nM.

B2: AB405 (antibody, from another filing, V domains shown)
VH: QVQLVQSGAEVKKPGASVKVSCKASGFTFSNYGMHWIRQAPGQGLEWIAMIYYDSSKMNYADTVKGRFTITRDNSTNTLYMELSSLRSEDTAVYYCAVPTSHYVVDVWGQGTTVTVSS
VL: EIVMTQSPATLSVSPGERATLSCQASQDIGNWLAWYQQKPGQSPRLLIYGATSLADGVPARFSGSRSGTEFTLTISSLQSEDFAVYYCLQAYNTPWTFGGGTKVEIKR
B2 showed an EC50 [2] of 13.6 nM, an EC50 [3] of 13.6 nM and an EC50 [5] of 13.6 nM.

B3: AB402 (antibody, from another filing, V domains shown)
VH: EVQLVESGGGLVQPGGSLRLSCAASGFTFSNYGMHWIRQAPGKGLEWIAMIYYDSSKMNYADTVKGRFTISRDNAKNSLYLQMNSLRAEDTAVYYCAVPTSHYVVDVWGQGTTVTVSS
VL: AIQMTQSPSSLSASVGDRVTITCQASQDIGNWLAWYQQKPGKSPKLLIYGATSLADGVPSRFSGSRSGTDFTLTISSLQPEDFATYYCLQAYNTPWTFGGGTKVEIKR
Work on B3 yielded an EC50 [2] of 0.06 nM, a Kd [6] of 3.7 nM and a koff [6] of 6.12e-05 s⁻¹. It also gave a kon [6] of 16400 M⁻¹ s⁻¹ and an EC50 [5] of 0.06 nM.

B4: anti-TNF antibody 8C11 (antibody, V domains shown)
VH: EFQLQQSGPELVKPGASVRISCKASGYSFTDYNMNWVKQSNGKSLEWVGVINPNYGSSTYNQKFKGKATLTVDQSSSTAYMQLNSLTSEDSAVYYCARKWGQLGRGFFDVWGTGTTVTVSS
VL: QIVLSQSPAILSASPGEKVTMTCRASSSVSYMHWFQQKPGSSPKPWIYATSNLASGVPARFSGSGSGTSYSLTISRVEAEDAATYYCQQWSSSPLTFGAGTKLELKR
With B4 the “L929 TNF Neutralization assay IC50” value [7] was 5 nM.

B5: muTfR(AB405)-SL-muTNF(8C11) (bispecific antibody)
VH: QVQLVQSGAEVKKPGASVKVSCKASGFTFSNYGMHWIRQAPGQGLEWIAMIYYDSSKMNYADTVKGRFTITRDNSTNTLYMELSSLRSEDTAVYYCAVPTSHYVVDVWGQGTTVTVSSASTKGPEFQLQQSGPELVKPGASVRISCKASGYSFTDYNMNWVKQSNGKSLEWVGVINPNYGSSTYNQKFKGKATLTVDQSSSTAYMQLNSLTSEDSAVYYCARKWGQLGRGFFDVWGTGTTVTVSS
VL: EIVMTQSPATLSVSPGERATLSCQASQDIGNWLAWYQQKPGQSPRLLIYGATSLADGVPARFSGSRSGTEFTLTISSLQSEDFAVYYCLQAYNTPWTFGGGTKVEIKRTVAAPSVFIFPPQIVLSQSPAILSASPGEKVTMTCRASSSVSYMHWFQQKPGSSPKPWIYATSNLASGVPARFSGSGSGTSYSLTISRVEAEDAATYYCQQWSSSPLTFGAGTKLELK
notes: DVD-Ig; outer AB405 (TfR), inner 8C11 (TNF); also called TfR(AB405)-SL-TNF DVD-Ig protein; copies: 2 + 2
B5 was tested, and the “L929 TNF Neutralization assay IC50” value [7] was 4.94 nM and the EC50 [8] was 3.76 nM.

B6: muTNF(8C11)-GS-muTfR(AB221) (bispecific antibody)
VH: EFQLQQSGPELVKPGASVRISCKASGYSFTDYNMNWVKQSNGKSLEWVGVINPNYGSSTYNQKFKGKATLTVDQSSSTAYMQLNSLTSEDSAVYYCARKWGQLGRGFFDVWGTGTTVTVSSGGGGSGGGGSEVQLVESGGGLVQPGNSLTLSCVASGFTFSNYGMHWIRQAPKKGLEWIAMIYYDSSKMNYADTVKGRFTISRDNSKNTLYLEMNSLRSEDTAMYYCAVPTSHYVVDVWGQGVSVTVSS
VL: QIVLSQSPAILSASPGEKVTMTCRASSSVSYMHWFQQKPGSSPKPWIYATSNLASGVPARFSGSGSGTSYSLTISRVEAEDAATYYCQQWSSSPLTFGAGTKLELKRGGSGGGGSGDIQMTQSPASLSASLEEIVTITCQASQDIGNWLAWYQQKPGKSPQLLIYGATSLADGVPSRFSGSRSGTQFSLKISRVQVEDIGIYYCLQAYNTPWTFGGGTKLELK
notes: DVD-Ig; outer 8C11 (TNF), inner AB221 (TfR); also called 8C11-GS-AB221 DVD-Ig protein; TNF-GS-AB221; copies: 2 + 2
B6 was tested, and the “L929 TNF Neutralization assay IC50” value [7] was 0.59 nM and the EC50 [8] was 1.68 nM.

B7: AB403 (antibody, V domains shown)
VH: EVQLVESGGGLVQPGGSLRLSCAASGFTFSNYGMHWIRQAPGKGLEWIAMIYYDSSKMNYADTVKGRFTISRDNAKNSLYLQMNSLRAEDTAVYYCAVPTSHYVVDVWGQGTTVTVSS
VL: EIVMTQSPATLSVSPGERATLSCQASQDIGNWLAWYQQKPGQSPRLLIYGATSLADGVPARFSGSRSGTEFTLTISSLQSEDFAVYYCLQAYNTPWTFGGGTKVEIK
notes: also called humanized variant of AB221
Work on B7 yielded a Kd [6] of 3.8 nM, a koff [6] of 8.39e-05 s⁻¹ and a kon [6] of 22000 M⁻¹ s⁻¹. It also gave an EC50 [9] of 0.09 nM and an EC50 [10] of 0.09 nM.

B8: DVD2671 (bispecific antibody)
VH: EVQLLESGGGLVQPGGSLRLSCAASGFTFSNYGMSWVRQAPGKGLEWVASIRSGGGRTYYSDNVKGRFTISRDNSKNTLYLQMNSLRAEDTAVYYCVRYDHYSGSSDYWGQGTLVTVSSASTKGPSVFPLAPEVQLVESGGGLVQPGNSLTLSCVASGFTFSNYGMHWIRQAPKKGLEWIAMIYYDSSKMNYADTVKGRFTISRDNSKNTLYLEMNSLRSEDTAMYYCAVPTSHYVVDVWGQGVSVTVSS
VL: DVVMTQSPLSLPVTPGEPASISCKSSQSLLDSDGKTYLNWLLQKPGQSPQRLIYLVSKLDSGVPDRFSGSGSGTDFTLKISRVEAEDVGVYYCWQGTHFPRTFGQGTKVEIKRTVAAPDIQMTQSPASLSASLEEIVTITCQASQDIGNWLAWYQQKPGKSPQLLIYGATSLADGVPSRFSGSRSGTQFSLKISRVQVEDIGIYYCLQAYNTPWTFGGGTKLELK
notes: DVD-Ig; also called AbetaLSTfR
Binder B8 has an EC50 [11] of 1.2 nM and an EC50 [10] of 1.2 nM.

B9: DVD2360 (bispecific antibody)
VH: EVQLVESGGGLVQPGGSLRLSCAASGFTFSNYGMHWIRQAPGKGLEWIAMIYYDSSKMNYADTVKGRFTISRDNAKNSLYLQMNSLRAEDTAVYYCAVPTSHYVVDVWGQGTTVTVSSASTKGPEVQLLESGGGLVQPGGSLRLSCAASGFTFSNYGMSWVRQAPGKGLEWVASIRSGGGRTYYSDNVKGRFTISRDNSKNTLYLQMNSLRAEDTAVYYCVRYDHYSGSSDYWGQGTLVTVSS
VL: EIVMTQSPATLSVSPGERATLSCQASQDIGNWLAWYQQKPGQSPRLLIYGATSLADGVPARFSGSRSGTEFTLTISSLQSEDFAVYYCLQAYNTPWTFGGGTKVEIKRTVAAPDVVMTQSPLSLPVTPGEPASISCKSSQSLLDSDGKTYLNWLLQKPGQSPQRLIYLVSKLDSGVPDRFSGSGSGTDFTLKISRVEAEDVGVYYCWQGTHFPRTFGQGTKVEIK
notes: DVD-Ig
Work on B9 yielded a Kd [12] of 1.7 nM, a koff [12] of 4.8e-05 s⁻¹ and a kon [12] of 28000 M⁻¹ s⁻¹. The EC50 [10] was 0.15 nM.
